Test results: PMC3531269
pIC50: −log10 of the molar value.

Key:
[1] = biological target: N-peptide N36 (aa 546-581 of HIV-1 HXB2 gp41 NHR) (HIV-1 HXB2) (UniProt P04578); assay: ELISA
[2] = biological target: HIV-1 HXB2 Env (gp120/gp41) expressed on the surface of CHO-WT cells (HIV-1 HXB2) (UniProt P04578)

Substance: 2DLT (bivalent recombinant protein: D1D2 domain of CD4 linked to T1144 by a 35-mer linker) (designed binder)
- pIC50 [1]: 6.30
- IC50 of HIV-1 replication, Bal (B, R5) [2]: 10.8 nM
- IC50 of HIV-1 replication, IIIB (B, X4) [2]: 5.64 nM
- IC50 of HIV-1 replication, primary isolate 92TH009 (E/A, R5) [2]: 17.5 nM
- IC50 of HIV-1 replication, primary isolate 92US657 (B, R5) [2]: 17.2 nM
- IC50 of HIV-1 replication, primary isolate 93 MW959 (C, R5) [2]: 18.9 nM
- IC90 of HIV-1 replication, Bal (B, R5) [2]: 44.4 nM
- IC90 of HIV-1 replication, IIIB (B, X4) [2]: 28.8 nM
- IC90 of HIV-1 replication, primary isolate 92TH009 (E/A, R5) [2]: 71.9 nM
- IC90 of HIV-1 replication, primary isolate 92US657 (B, R5) [2]: 51.9 nM
- IC90 of HIV-1 replication, primary isolate 93 MW959 (C, R5) [2]: 48.9 nM

Substance: T1144 (C-peptide, next generation HIV fusion inhibitor)
- IC50 of HIV-1 replication, Bal (B, R5) [2]: 4.03 nM
- IC50 of HIV-1 replication, IIIB (B, X4) [2]: 2.13 nM
- IC50 of HIV-1 replication, primary isolate 92TH009 (E/A, R5) [2]: 1.36 nM
- IC50 of HIV-1 replication, primary isolate 92US657 (B, R5) [2]: 13.2 nM
- IC50 of HIV-1 replication, primary isolate 93 MW959 (C, R5) [2]: 2.35 nM
- IC90 of HIV-1 replication, Bal (B, R5) [2]: 28.1 nM
- IC90 of HIV-1 replication, IIIB (B, X4) [2]: 35.2 nM
- IC90 of HIV-1 replication, primary isolate 92TH009 (E/A, R5) [2]: 6.21 nM
- IC90 of HIV-1 replication, primary isolate 92US657 (B, R5) [2]: 42.3 nM
- IC90 of HIV-1 replication, primary isolate 93 MW959 (C, R5) [2]: 16.2 nM
